Target: mERK2 9m peptide (synthetic short-chain peptide for CD8-positive T-cell stimulation, …) (mouse)
Assay: cell-based or functional assay

percentage of IFN-γ-producing cells in CD90.1-positive CD8-positive infused T cells of the draining lymph node after stimulation with mERK2 9m peptide (intracellular cytokine staining): 80%
Substance: mutated ERK2-specific T-cell receptor of DUC18 transgenic mice, on CD8-positive T cells (TCR)

Source: US20240398864A1
